Data published in patent US20160340421A1 (Regeneron, published 2016).

T1: hGDF11 homodimer (human, UniProt O95390 299-407)
T1 sequence (looked up): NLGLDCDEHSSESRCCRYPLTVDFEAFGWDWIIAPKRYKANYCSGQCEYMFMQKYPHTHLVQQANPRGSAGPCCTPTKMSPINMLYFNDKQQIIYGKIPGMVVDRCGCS

T2: Human GDF8 homodimer (mature human Growth and Differentiation Factor-8) (human, UniProt O14793 267-375)
T2 construct: also called hGDF8; myostatin
T2 sequence: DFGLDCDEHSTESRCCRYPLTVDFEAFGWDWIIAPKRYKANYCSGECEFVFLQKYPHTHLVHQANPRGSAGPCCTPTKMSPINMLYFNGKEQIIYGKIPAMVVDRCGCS

B1: 22-D3 (antibody, V domains shown)
VH: QVQLVQSGGGLVKPGGSLRLSCAASGFTFSSYSMNWVRQAPGKGLEWVSSISSSSSYIYYADSVKGRFTISRDNAKNSLYLQMNSLRAEDTAVYYCARDRGYTFGVDYWGQGTTVTVSS
VL: AIQMTQSPSSLSASVGDRVTITCRASQGIRNDLGWYQQKPGKAPKRLIYAASSLQSGVPSRFSGSGSGTEFTLTISSLQPEDFATYYCLQHNSYPYTFGQGTKVEIKR
B2: 22-E6 (antibody, V domains shown)
VH: QVQLVQSGPGLVKPSETLSLTCTVSGGSIITYSYYWGWIRQPPGKGLEWIGTIHHSGSTYYNPSLKSRVTISVDTSKNQFSLTLSSVTAADTAVYYCARDYYDSSGYYYNWFDPWGQGTMVTVSS
VL: AIQMTQSPSSLSASVGDRVTITCRASQGIRNDLGWYQQKPGKAPKRLIYAASSLQSGVPSRFSGSGSGTEFTLTISSLQPEDFATYYCLQHNSSPWTFGQGTKVEIKR
B3: 1H4-5 (antibody, V domains shown)
VH: QVQLVESGGDVVQPGRSLRLSCTASGFTFSSYGMHWVRQAPGRGLEWVAVISFDGKNKYYADSVKGRFTVSRDNSKNTLFLQMNSLRAEDTALYYCAKRIAATGYYYFYGLDVWGQGTTVTVSS
VL: EIMMTQSPATLSVSPGERGTLSCRASQSVSSNLAWYQQKPGQAPRLLIYGASTRASGIPARFSGSGSGTEFTLTVSSLQSEDFAVYYCQQYNNWPLTFGGGTKVEIK
B4: 22-G10 (antibody, V domains shown)
VH: QVHLKESGPTLVKPTQTLTLTCTFSGFSLSTSGVGVGWIRQPPGKALEWLALIYWNDDKRYSPSLKSRLTITKDTSKNQVVLTMTNMDPVDTATYYCTHTSRYNWHYGFLDYWGQGTTVTVSS
VL: AIQMTQSPSSLSASVGDRVTITCRASQGISNYLAWFQQKPGKAPKSLIYAASSLQSGVPSKFSGSGSGTDFTLTISSLQPEDFATYYCQQYNSYPLTFGGGTKVEIKR
B5: 9B4-3 (antibody, V domains shown)
VH: EVQLLESGGGLVQPGESLRLSCAASGFTFSSYAMNWVRQAPGKGLEWVSTISGSGGYIYYADSVKGRFTISRDNSKNTLYLQMNSLRAEDTAVYFCAKDSRYNWNYGNFDYWGQGTLVTVSS
VL: EIVMTQSPATLSVSPGERATLSCRASQNVSSNLAWNKQKPGQAPRLLIYATSTRATGVPARFSASGSGTDFALTINSLQSEDFAVYYCQQYNNWPLTFGGGTKVEIK
B6: 19F2 (antibody, V domains shown)
VH: QVQLVESGGGVVQPGRSLRLSCEASGFTFSSSGMHWVRQAPGKGLQWVAVISYDGNNKFYEDSVKGRLTISRDNSNNTLWLQMNSLRVEDTAVYYCAKSGGRVGAAFAYWGQGTLVTVSS
VL: DIVNTQSPLSLPVTPGEPASISCRSSQSLLYGNGYNYLDWYLQKPGHSPQLLIYLGSNRGSGVPDRFSGSGSGTDFTLKISRVEAEDVGIYYCMQTLQTPFTFGPGTKMYIK
B7: 3E2-1 (antibody, V domains shown)
VH: QVQLQQWGAGLLKPSETLSLTCAVYGGSFSGYYWSWIRQPPGKGLEWIGEINHSGNTNYNPSLKSRVTISVDTSKNQFSLKLNSVTAADTAVYYCARREATVTPYFDYWGQGTLVTVSS
VL: DIQLTQSPSFLSASVGDRVTITCWASQGISSYLAWYQQKPGKAPKLLIYAASTLQSGVPSRFSGSGSGTEFTLTISSLQPEDFATYYCQQLNSYPLTFGGGTKVEIK

Legend:
[1] = molecular target: T1, hGDF11 homodimer; assay: SPR, antibody captured, 25 nM antigen
Experimental: (§1) Equilibrium dissociation constants (KD values) for antigen binding to selected antibodies were determined by surface kinetics using a real-time biosensor surface plasmon resonance assay (BIACORE™ 2000). Each selected antibody was captured on either a goat anti-mouse IgG polyclonal antibody surface or a goat anti-hFc polyclonal antibody (Jackson Immuno Research Lab) surface created through direct chemical coupling to a BIACORE™ chip to form a captured antibody surface. Human GDF8 homodimer, hGDF11 homodimer, or hGDF5 homodimer at 25 nM was injected over the captured antibody surfaces, and antigen-antibody binding and dissociation were monitored in real time at room temperature. Kinetic analysis was performed to calculate KD, dissociation rate constants (kd), association rate constants (ka) and half-life of antigen/antibody complex dissociation (Table 2).

[2] = molecular target: T2, Human GDF8 homodimer (mature human …); assay: SPR, antibody captured, 25 nM antigen
Experimental: as §1

[3] = molecular target: T1, hGDF11 homodimer; assay: cell-based or functional assay
[4] = molecular target: T2, Human GDF8 homodimer (mature human …); assay: cell-based or functional assay

| Binder | Kd [1] | T1/2 [1] | Kd [2] | T1/2 [2] | IC50, GDF11-inducible luciferase, A204/Smad2 cells, 0.8 nM GDF11 [3] | IC50, GDF8-inducible luciferase, A204/Smad2 cells, 0.8 nM GDF8 [4] |
| --- | --- | --- | --- | --- | --- | --- |
| B1 | 1.09 nM | 21 min | 1.23 nM | 34 min | > 25 nM | > 20 nM |
| B2 | 0.12 nM | 87 min | 0.26 nM | 148 min | 22.4 nM | 2.2 nM |
| B3 | 1.48 nM | 24 min | 0.95 nM | 54 min |  |  |
| B4 | 0.73 nM | 50 min | 0.25 nM | 71 min | > 25 nM | 10.5 nM |
| B5 | 1.08 nM | 32 min | 1.18 nM | 50 min |  |  |
| B6 |  |  | 0.5 nM | 38 min | > 25 nM | > 20 nM |
| B7 | 0.7 nM | 79 min | 2.55 nM | 45 min |  |  |
